Literature values as cited in PMC3338619, “Ligand Binding Study of Human PEBP1/RKIP: Interaction with Nucleotides and Raf-1 Peptides Evidenced by NMR and Mass Spectrometry” (PLoS ONE, 2012).

Molecular target: Raf-1 tri-phosphorylated peptide (Homo sapiens) (UniProt P04049)

Kd: 20 µM
Substance: rPEBP1 (from UniProt P31044)
